Experimental data reported in patent US20240368280A1 (DEUTSCHES KREBSFORSCHUNGSZENTRUM STIFTUNG DES FFENTLICHEN …, published 2024).

T1: Human Fcγ receptor IIb/c (human, UniProt P31994 46-217)
T1 construct: Bought protein; also called Fcγ RIIb/c
T1 sequence (looked up): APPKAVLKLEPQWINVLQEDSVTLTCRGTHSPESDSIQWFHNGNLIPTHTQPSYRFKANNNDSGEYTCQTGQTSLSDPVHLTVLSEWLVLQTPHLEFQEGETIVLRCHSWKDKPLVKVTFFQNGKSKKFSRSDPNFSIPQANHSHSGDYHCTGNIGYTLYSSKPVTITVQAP

T2: Human Fcγ receptor IIa (human, UniProt P12318 36-218, limits assumed)
T2 construct: Bought protein; also called Fcγ RIIa
T2 sequence (looked up): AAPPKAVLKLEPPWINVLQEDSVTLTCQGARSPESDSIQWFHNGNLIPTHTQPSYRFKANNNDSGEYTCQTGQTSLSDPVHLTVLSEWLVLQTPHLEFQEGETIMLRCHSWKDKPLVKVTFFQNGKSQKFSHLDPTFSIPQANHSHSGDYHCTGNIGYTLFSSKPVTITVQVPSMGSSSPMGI

T3: human CEACAM6 (carcinoembryonic antigen-related cell adhesion molecule 6) (human, UniProt P40199 35-320)
T3 sequence: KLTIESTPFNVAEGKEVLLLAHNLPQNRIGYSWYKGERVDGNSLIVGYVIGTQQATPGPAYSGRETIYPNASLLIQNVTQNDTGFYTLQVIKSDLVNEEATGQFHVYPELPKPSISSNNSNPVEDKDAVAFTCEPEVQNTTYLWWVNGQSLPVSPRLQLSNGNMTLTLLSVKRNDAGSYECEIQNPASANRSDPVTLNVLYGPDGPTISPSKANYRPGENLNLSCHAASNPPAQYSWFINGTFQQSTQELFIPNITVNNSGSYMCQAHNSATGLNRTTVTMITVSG


Experiments:
[1] = molecular target: T4, Human Fcγ receptor I (human, UniProt P12314 16-288); experiment: SPR (Biacore T200), His-tagged FcγR captured via anti-His IgG, antibody as analyte 0.04-25 µM, steady-state affinity
T4 construct: Bought protein; also called Fcγ RI
Experimental: (§1) Binding assays were performed on a Biacore T200 instrument (Cytiva) at 25° C. using assay buffer HBS EP+supplemented with 500 mM NaCl. Fcγ receptors were captured via anti-penta his-tag IgGs (“His capture kit”, Order No. 2895056, Cytiva) covalently amine coupled to a Series S CM5 sensor chip (Cytiva). The amine coupling was carried out according to the manufacturer's instructions using 1-ethyl-3-(3-dimethylaminopropyl) carbodiimide hydrochloride (EDC), N-hydroxysuccinimide (NHS) and ethanolamine HCl, pH 8.5 (“Amine Coupling Kit” BR-1000-50, Cytiva.). Human Fcγ receptor I (R&D Systems, Order No. 1257-FC), Fcγ receptor IIa (R&D Systems, Order No. 1330-CD/F), Fcγ receptor IIb/c (R&D Systems, Order No. 1875-CD), Fcγ receptor IIIa (R&D Systems, Order No. 4325-FC) and Fcγ receptor IIIb (R&D Systems, Order No. 1597-FC) were captured to ˜30 RU.
(§2) Anti-CEACAM6 engineered antibodies were used as analytes in a concentration series from 0.04-25 μM in multi cycle kinetics mode. The sensor surface was regenerated with glycine pH 1.5 after each analyte injection. Obtained sensorgrams were double referenced (subtraction of reference flow cell signal and buffer injection) and were fitted to a 1:1 Langmuir binding model to derive steady-state affinity data using the Biacore T200 Evaluation software.

[2] = molecular target: T5, Human Fcγ receptor IIIa (human, UniProt P08637 17-208, limits assumed); experiment: SPR (Biacore T200), His-tagged FcγR captured via anti-His IgG, antibody as analyte 0.04-25 µM, steady-state affinity; clear binding response
T5 construct: Bought protein; also called Fcγ RIIIa
Experimental: as §1, §2

[3] = molecular target: T1, Human Fcγ receptor IIb/c; experiment: SPR (Biacore T200), His-tagged FcγR captured via anti-His IgG, antibody as analyte, steady-state
Experimental: as §1, §2

[4] = molecular target: T2, Human Fcγ receptor IIa; experiment: as above
Experimental: as §1, §2

[5] = molecular target: T6, Human Fcγ receptor IIIb (human, UniProt O75015 20-208, limits assumed); experiment: as above
T6 construct: Bought protein; also called Fcγ RIIIb
Experimental: as §1, §2

[6] = molecular target: T3, human CEACAM6 (carcinoembryonic …); experiment: cell-based or functional assay
[7] = molecular target: T4, Human Fcγ receptor I; experiment: SPR (Biacore T200), His-tagged FcγR captured via anti-His IgG, antibody as analyte, steady-state
Experimental: as §1, §2

[8] = molecular target: T2, Human Fcγ receptor IIa; experiment: SPR (Biacore T200), His-tagged FcγR captured via anti-His IgG, antibody as analyte 0.04-25 µM, steady-state affinity
Experimental: as §1, §2

[9] = molecular target: T5, Human Fcγ receptor IIIa; experiment: as above
Experimental: as §1, §2

[10] = molecular target: T1, Human Fcγ receptor IIb/c; experiment: SPR (Biacore T200), His-tagged FcγR captured via anti-His IgG, antibody as analyte, steady-state affinity
Experimental: as §1, §2

[11] = molecular target: T4, Human Fcγ receptor I; experiment: as above
Experimental: as §1, §2

[12] = molecular target: T2, Human Fcγ receptor IIa; experiment: as above
Experimental: as §1, §2

[13] = molecular target: T5, Human Fcγ receptor IIIa; experiment: as above
Experimental: as §1, §2

[14] = molecular target: T6, Human Fcγ receptor IIIb; experiment: as above
Experimental: as §1, §2

[15] = molecular target: T1, Human Fcγ receptor IIb/c; experiment: SPR (Biacore T200), His-tagged FcγR captured via anti-His IgG, antibody as analyte 0.04-25 µM, steady-state affinity; clear binding response
Experimental: as §1, §2

[16] = molecular target: T6, Human Fcγ receptor IIIb; experiment: as above
Experimental: as §1, §2

[17] = molecular target: T4, Human Fcγ receptor I; experiment: SPR (Biacore T200), His-tagged FcγR captured via anti-His IgG, antibody as analyte 0.04-25 µM, steady-state affinity; Table 3 experiment (engineered Fc variants), steady-state affinity
Experimental: as §1, §2

[18] = molecular target: T5, Human Fcγ receptor IIIa; experiment: SPR (Biacore T200), His-tagged FcγR captured via anti-His IgG, antibody as analyte, steady-state
Experimental: as §1, §2

T4 sequence (P12314 16-288 limits assumed): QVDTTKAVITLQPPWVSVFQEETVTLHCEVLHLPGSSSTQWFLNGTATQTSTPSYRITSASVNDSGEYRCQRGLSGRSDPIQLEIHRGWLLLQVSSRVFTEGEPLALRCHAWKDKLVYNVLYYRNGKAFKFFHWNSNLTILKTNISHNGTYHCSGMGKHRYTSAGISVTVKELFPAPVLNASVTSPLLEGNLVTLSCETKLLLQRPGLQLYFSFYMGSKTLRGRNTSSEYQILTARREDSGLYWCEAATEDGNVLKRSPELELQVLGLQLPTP
T5 sequence (P08637 17-208 limits assumed): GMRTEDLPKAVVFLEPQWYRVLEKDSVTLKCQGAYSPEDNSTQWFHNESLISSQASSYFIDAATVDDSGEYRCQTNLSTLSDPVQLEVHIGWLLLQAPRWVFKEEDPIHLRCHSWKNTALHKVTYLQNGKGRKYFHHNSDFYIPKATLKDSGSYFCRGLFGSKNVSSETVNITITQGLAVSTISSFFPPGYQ
T6 sequence (O75015 20-208 limits assumed): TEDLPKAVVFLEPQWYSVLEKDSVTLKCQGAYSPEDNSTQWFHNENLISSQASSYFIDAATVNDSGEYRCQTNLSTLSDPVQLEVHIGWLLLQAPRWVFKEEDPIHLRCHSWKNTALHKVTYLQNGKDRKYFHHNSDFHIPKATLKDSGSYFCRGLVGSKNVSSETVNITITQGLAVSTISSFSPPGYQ

Row | Kd [1] [µM] | binding result [3] | binding result [4] | binding result [5] | TILs IFNgamma production (co-culture with HCC2935 tumor cells), EC50 [6] [µg/mL] | binding result [18] | Binder | survivin specific T cells IFNgamma production (co-culture with HCC2935 tumor cells), EC50 [6] [µg/mL] | binding result [7] | further results
1 | 3.7 | no binding (tested: 0.04-25 µM) | no binding (tested: 0.04-25 µM) | no binding (tested: 0.04-25 µM) | – | – | CEACAM6-Human IgG1-LALA (TPP-19919) (antibody, Human IgG1 with L234A/L235A (EU numbering)) heavy: not shown light: DIQLTQSPSFLSASVGDRVTITCKASQNVGTAVAWYQQKPGKAPKLLIYSASNRYTGVPSRFSGSGSGTEFTLTISSLQPEDFATYYCQQYSSYPLTFGGGTKVEIKRTVAAPSVFIFPPSDEQLKSGTASVVCLLNNFYPREAKVQWKVDNALQSGNSQESVTEQDSKDSTYSLSSTLTLSKADYEKHKVYACEVTHQGLSSPVTKSFNRGEC | – | – | Kd [2]: > 25 µM
2 | – | – | – | – | – | – | CEACAM6-Human IgG1 (TPP-5468) (antibody, expressed in HEK293 cells; also called hIgG1; anti-CEACAM6 human IgG1 format) heavy: not shown light: DIQLTQSPSFLSASVGDRVTITCKASQNVGTAVAWYQQKPGKAPKLLIYSASNRYTGVPSRFSGSGSGTEFTLTISSLQPEDFATYYCQQYSSYPLTFGGGTKVEIKRTVAAPSVFIFPPSDEQLKSGTASVVCLLNNFYPREAKVQWKVDNALQSGNSQESVTEQDSKDSTYSLSSTLTLSKADYEKHKVYACEVTHQGLSSPVTKSFNRGEC | – | – | Kd [8]: 21 µM; Kd [9]: 4.9 µM; Kd [10]: 11 µM; Kd [11]: 0.32 µM; Kd [12]: 7.3 µM; Kd [13]: 1 µM; Kd [14]: 7.4 µM; Kd [15]: > 25 µM; Kd [16]: > 25 µM; Kd [17]: 0.016 µM
3 | 1.2 | no binding (tested: 0.04-25 µM) | no binding (tested: 0.04-25 µM) | no binding (tested: 0.04-25 µM) | – | no binding (tested: 0.04-25 µM) | CEACAM6-Human IgG1-aglyco (TPP-10914) (antibody, Human IgG1 with N297A (EU numbering), aglycosylated) heavy: not shown light: DIQLTQSPSFLSASVGDRVTITCKASQNVGTAVAWYQQKPGKAPKLLIYSASNRYTGVPSRFSGSGSGTEFTLTISSLQPEDFATYYCQQYSSYPLTFGGGTKVEIKRTVAAPSVFIFPPSDEQLKSGTASVVCLLNNFYPREAKVQWKVDNALQSGNSQESVTEQDSKDSTYSLSSTLTLSKADYEKHKVYACEVTHQGLSSPVTKSFNRGEC | – | – | –
4 | – | no binding (tested: 0.04-25 µM) | no binding (tested: 0.04-25 µM) | no binding (tested: 0.04-25 µM) | 0.5 | no binding (tested: 0.04-25 µM) | CEACAM6-Human IgG1-LALAaglyco (TPP-21518) (antibody, Human IgG1 with L234A/L235A/N297A (EU numbering); also called IgG1 LALAaglyco anti-CEACAM6 antibody) heavy: not shown light: DIQLTQSPSFLSASVGDRVTITCKASQNVGTAVAWYQQKPGKAPKLLIYSASNRYTGVPSRFSGSGSGTEFTLTISSLQPEDFATYYCQQYSSYPLTFGGGTKVEIKRTVAAPSVFIFPPSDEQLKSGTASVVCLLNNFYPREAKVQWKVDNALQSGNSQESVTEQDSKDSTYSLSSTLTLSKADYEKHKVYACEVTHQGLSSPVTKSFNRGEC | 0.55 | no binding (tested: 0.04-25 µM) | TILs mediated HCC2935 killing (xCELLigence impedance assay, 100 h), EC50 [6]: 0.43 µg/mL

Row | Binder | Kd [1] [µM] | binding result [3] | binding result [4] | binding result [5] | TILs IFNgamma production (co-culture with HCC2935 tumor cells), EC50 [6] [µg/mL] | binding result [18] | survivin specific T cells IFNgamma production (co-culture with HCC2935 tumor cells), EC50 [6] [µg/mL] | binding result [7] | further results
5 | CEACAM6-Human IgG2 (TPP-3310) (antibody, Human IgG2; expressed in HEK293 cells) heavy: QVTLRESGPALVKPTQTLTLTCTFSGFSLSTYGIGVGWIRQPPGKALEWLAHIWWNDNKYYSTSLKTRLTISKDTSKNQVVLTMTNMDPVDTATYYCARISLPYFDYWGQGTTLTVSSASTKGPSVFPLAPCSRSTSESTAALGCLVKDYFPEPVTVSWNSGALTSGVHTFPAVLQSSGLYSLSSVVTVPSSNFGTQTYTCNVDHKPSNTKVDKTVERKCCVECPPCPAPPVAGPSVFLFPPKPKDTLMISRTPEVTCVVVDVSHEDPEVQFNWYVDGVEVHNAKTKPREEQFNSTFRVVSVLTVVHQDWLNGKEYKCKVSNKGLPAPIEKTISKTKGQPREPQVYTLPPSREEMTKNQVSLTCLVKGFYPSDIAVEWESNGQPENNYKTTPPMLDSDGSFFLYSKLTVDKSRWQQGNVFSCSVMHEALHNHYTQKSLSLSPG light: DIQLTQSPSFLSASVGDRVTITCKASQNVGTAVAWYQQKPGKAPKLLIYSASNRYTGVPSRFSGSGSGTEFTLTISSLQPEDFATYYCQQYSSYPLTFGGGTKVEIKRTVAAPSVFIFPPSDEQLKSGTASVVCLLNNFYPREAKVQWKVDNALQSGNSQESVTEQDSKDSTYSLSSTLTLSKADYEKHKVYACEVTHQGLSSPVTKSFNRGEC | – | – | no binding (tested: Highest concentration used was 16 µM) | no binding (tested: Highest concentration used was 16 µM) | 0.7 | – | 0.5 | no binding (tested: Highest concentration used was 16 µM) | TILs mediated HCC2935 killing (xCELLigence impedance assay), EC50 [6]: 0.4 µg/mL
